Reference: US20080267980A1 (MUSC FOUNDATION FOR RESEARCH DEVELOPMENT, published 2008)

Legend:
Human C3dg-biotin [1] = biological target: T1, Human C3dg-biotin (human, UniProt P01024 955-1303, biotin (site not stated) in the SPR experiments); assay: SPR, C3dg-biotin captured on streptavidin chip
T1 construct: domain: C3dg; In the ELISA it is purified C3dg coated on wells; also called C3dg ligand; CR2 ligand C3dg
Procedure: (§1) Kinetic analysis of the interaction of the CR2 fusion proteins with C3dg-biotin was performed using surface plasmon resonance (SPR) measurements made on a BIAcore 3000 instrument. Human C3dg-biotin, prepared as described (36), was bound to the surface of BIAcore streptavidin (SA) sensor chips by injecting C3dg-biotin at 50 μg/ml over the surface of one flow cell of the chip at 2 μl/minute for 20 minutes. The flow buffer was 0.5×PBS+0.05% Tween 20. The SPR signal from captured C3dg generated BIAcore response units ranging from 250-500. Control streptavidin-coated flow cells were run in the absence of protein. Binding was evaluated over a range of CR2 fusion protein concentrations (15.6-500 nM) in 0.5×PBS, 0.05% Tween 20 at 25° C. at a flow rate of 25 μl/minute. CR2 fusion protein samples were injected in 50 μl aliquots using the kinject command. Association of the fusion proteins with the ligand was monitored for 120 seconds, after which the complex was allowed to dissociate in the presence of buffer only for an additional 120 seconds. […] Binding data were fitted to a 1:1 Langmuir binding model using BIAevaluation Version 3.1 software (BIAcore) and evaluated for best fit by low residual and χ² values. […]
(§2) A comparison of the affinity of the different recombinant fusion proteins for the CR2 ligand C3dg was determined by surface plasmon resonance measurements. […]

Human C3dg-biotin [2] = biological target: T1, Human C3dg-biotin; assay: ELISA, wells coated with purified C3dg, anti-complement inhibitor antibodies
Procedure: ELISA experiments were conducted as previously described. In ELISA experiments, CR2-containing constructs were added to wells coated with purified C3dg. Binding was detected by means of anti-complement inhibitor antibodies and enzyme-conjugated secondary antibodies. All CR2 containing constructs, but not sCD59 and sDAF bound to C3d.

Human C3dg-biotin [3] = biological target: T1, Human C3dg-biotin; assay: SPR, biotinylated C3dg on streptavidin BIAcore chip
Procedure: as §1, §2

Human C3dg-biotin [4] = biological target: T1, Human C3dg-biotin; assay: SPR (referred to)
Procedure: as §1, §2

T1 sequence (P01024 955-1303 limits assumed): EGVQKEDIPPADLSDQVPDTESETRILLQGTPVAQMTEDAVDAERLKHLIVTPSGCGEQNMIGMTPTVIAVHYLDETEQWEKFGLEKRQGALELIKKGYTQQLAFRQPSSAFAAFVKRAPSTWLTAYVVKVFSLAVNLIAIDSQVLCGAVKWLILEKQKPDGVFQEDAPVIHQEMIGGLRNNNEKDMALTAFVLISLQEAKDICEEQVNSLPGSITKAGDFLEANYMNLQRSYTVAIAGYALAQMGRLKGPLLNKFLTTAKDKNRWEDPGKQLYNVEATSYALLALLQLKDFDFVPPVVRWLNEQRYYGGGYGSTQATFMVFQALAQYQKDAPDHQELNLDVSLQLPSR

B1: soluble DAF (other, human, UniProt P08174 35-283, looked up)
chain: DCGLPPDVPNAQPALEGRTSFPEDTVITYKCEESFVKIPGEKDSVICLKGSQWSDIEEFCNRSCEVPTRLNSASLKQPYITQNYFPVGTVVEYECRPGYRREPSLSPKLTCLQNLKWSTAVEFCKKKSCPNPGEIRNGQIDVPGGILFGATISFSCNTGYKLFGSTSSFCLISGSSVQWSDPLPECREIYCPAPPQIDNGIIQGERDHYGYRQSVTYACNKGFTMIGEHSIYCTVNNDEGEWSGPPPEC
notes: range 1-249; also called sDAF; untargeted sDAF
B1: no binding (Human C3dg-biotin [1]).

B2: DAF-CR2 (other)
chain: DCGLPPDVPNAQPALEGRTSFPEDTVITYKCEESFVKIPGEKDSVICLKGSQWSDIEEFCNRSCEVPTRLNSASLKQPYITQNYFPVGTVVEYECRPGYRREPSLSPKLTCLQNLKWSTAVEFCKKKSCPNPGEIRNGQIDVPGGILFGATISFSCNTGYKLFGSTSSFCLISGSSVQWSDPLPECREIYCPAPPQIDNGIIQGERDHYGYRQSVTYACNKGFTMIGEHSIYCTVNNDEGEWSGPPPECRSSGGGGSGGGGSGGGGSISCGSPPPILNGRISYYSTPIAVGTVIRYSCSGTFRLIGEKSLLCITKDKVDGTWDKPAPKCEYFNKYSSCPEPIVPGGYKIRGSTPYRHGDSVTFACKTNFSMNGNKSVWCQANNMWGPTRLPTCVSVFPLECPALPMIHNGHHTSENVGSIAPGLSVTYSCESGYLLVGEKIINCLSSGKWSAVPPTCEEARCKSLGRFPNGKVKEPPILRVGVTANFFCDEGYRLQGPPSSRCVIAGQGVAWTKMPVC
notes: also called human DAF-CR2; fusion protein with CR2 at the C-terminus
B2: binds (Human C3dg-biotin [2]).

B3: soluble CD59 (other, human, UniProt P13987 26-102, looked up)
chain: LQCYNCPNPTADCKTAVNCSSDFDACLITKAGLQVYNKCWKFEHCNFNDVTTRLRENELTYYCCKKDLCNFNEQLEN
notes: also called sCD59; untargeted sCD59
B3: no binding (Human C3dg-biotin [3]).

B4: CR2-CD59 (other)
chain: ISCGSPPPILNGRISYYSTPIAVGTVIRYSCSGTFRLIGEKSLLCITKDKVDGTWDKPAPKCEYFNKYSSCPEPIVPGGYKIRGSTPYRHGDSVTFACKTNFSMNGNKSVWCQANNMWGPTRLPTCVSVFPLECPALPMIHNGHHTSENVGSIAPGLSVTYSCESGYLLVGEKIINCLSSGKWSAVPPTCEEARCKSLGRFPNGKVKEPPILRVGVTANFFCDEGYRLQGPPSSRCVIAGQGVAWTKMPVCSGGGGSLQCYNCPNPTADCKTAVNCSSDFDACLITKAGLQVYNKCWKFEHCNFNDVTTRLRENELTYYCCKKDLCNFNEQLEN
notes: also called CR2-human CD59; fusion protein with CR2 at the N-terminus
B4: binds (Human C3dg-biotin [4]).
